Experimental data taken from article PMC7509493.

Molecular target: recombinant flounder IL-2 receptor beta, GST-tagged (GST-rfIL-2Rβ) (flounder (Paralichthys olivaceus))

“recombinant flounder IL-2 protein, His-tagged (His-rfIL-2) (ligand)” showed a percentage of CD4-1+ T lymphocytes in cultured flounder PBLs (FCM, 72 h), PHA + rfIL-2 after blocking with anti-rfIL-2Rβ polyclonal antibodies (order of 'respectively' assumed) of 12.6%, a percentage of CD4-1+ T lymphocytes in cultured flounder PBLs (FCM, 72 h), PHA + rfIL-2 group without blocking antibodies of 19.2% and a percentage of CD4-1+ T lymphocytes in cultured flounder PBLs (FCM, 72 h), PHA + rfIL-2 with anti-rfIL-2 polyclonal antibodies (order of 'respectively' assumed) of 7.2%. It also gave a percentage of CD4-2+ T lymphocytes in cultured flounder PBLs (FCM, 72 h), PHA + rfIL-2 after blocking with anti-rfIL-2Rβ polyclonal antibodies (order of 'respectively' assumed) of 11%, a percentage of CD4-2+ T lymphocytes in cultured flounder PBLs (FCM, 72 h), PHA + rfIL-2 group without blocking antibodies of 14.5% and a percentage of CD4-2+ T lymphocytes in cultured flounder PBLs (FCM, 72 h), PHA + rfIL-2 with anti-rfIL-2 polyclonal antibodies (order of 'respectively' assumed) of 8.8%. It also gave a percentage of IL-2Rβ+ cells in cultured flounder PBLs (FCM, 72 h), PHA + rfIL-2 after blocking with anti-rfIL-2Rβ polyclonal antibodies of 17.8%, a percentage of IL-2Rβ+ cells in cultured flounder PBLs (FCM, 72 h), PHA + rfIL-2 group without blocking antibodies of 26.8% and a percentage of IL-2Rβ+ cells in cultured flounder PBLs (FCM, 72 h), PHA + rfIL-2 with anti-rfIL-2 polyclonal antibodies of 13.3%.
